Measurements taken from patent US20140348819A1, “Methods of Treating Cancer” (Dana-Farber Cancer Institute, Inc., priority 2011, published 2014).

Tested on: six V600E BRAF melanoma cell lines
Assay: Screening of recombinant RTK ligands for ability to confer resistance to BRAFi (PLX4720) or MEKi (PD184352) (Table 4)
Format: cell-based, human
Parameters: ability of recombinant RTK ligand to confer resistance / ability of recombinant RTK ligand to confer resistance (screening value): scale not given here
Outline: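 Six V600E BRAF melanoma lines treated with PLX4720 or PD184352 after addition of 22 recombinant RTK ligands, scored for drug resistance. Activation of selected RTKs confirmed by western blotting and high-throughput tyrosine kinase phosphorylation profiling.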

B1: Gas6 (protein, UniProt Q14393 31-678, looked up)
Growth arrest-specific …: ALLPAREATQFLRPRQRRAFQVFEEAKQGHLERECVEELCSREEAREVFENDPETDYFYPRYLDCINKYGSPYTKNSGFATCVQNLPDQCTPNPCDRKGTQACQDLMGNFFCLCKAGWGGRLCDKDVNECSQENGGCLQICHNKPGSFHCSCHSGFELSSDGRTCQDIDECADSEACGEARCKNLPGSYSCLCDEGFAYSSQEKACRDVDECLQGRCEQVCVNSPGSYTCHCDGRGGLKLSQDMDTCEDILPCVPFSVAKSVKSLYLGRMFSGTPVIRLRFKRLQPTRLVAEFDFRTFDPEGILLFAGGHQDSTWIVLALRAGRLELQLRYNGVGRVTSSGPVINHGMWQTISVEELARNLVIKVNRDAVMKIAVAGDLFQPERGLYHLNLTVGGIPFHEKDLVQPINPRLDGCMRSWNWLNGEDTTIQETVKVNTRMQCFSVTERGSFYPGSGFAFYSLDYMRTPLDVGTESTWEVEVVAHIRPAADTGVLFALWAPDLRAVPLSVALVDYHSTKKLKKQLVVLAVEHTALALMEIKVCDGQEHVVTVSLRDGEATLEVDGTRGQSEVSAAQLQERLAVLERHLRSPVLTFAGGLPDVPVTSAPVTAFYRGCMTLEVNRRLLDLDEAAYKHSDITAHSCPPVEPAAA
ability of recombinant RTK ligand to confer resistance (A2058, PD184352 - 1 uM, ligand 6.25 ng/ml): 0.99
ability of recombinant RTK ligand to confer resistance (A2058, PD184352 - 1 uM, ligand 25 ng/ml): 0.97
ability of recombinant RTK ligand to confer resistance (A2058, PD184352 - 1 uM, ligand 100 ng/ml): 1.02
ability of recombinant RTK ligand to confer resistance (A2058, PD184352 - 1 uM, ligand 400 ng/ml): 0.97
ability of recombinant RTK ligand to confer resistance (A2058, PD184352 - 1 uM, ligand 1600 ng/ml): 0.95
ability of recombinant RTK ligand to confer resistance (A2058, PLX4720 - 2 uM, ligand 6.25 ng/ml): 1.01
ability of recombinant RTK ligand to confer resistance (A2058, PLX4720 - 2 uM, ligand 25 ng/ml): 1.00
ability of recombinant RTK ligand to confer resistance (A2058, PLX4720 - 2 uM, ligand 100 ng/ml): 0.98
ability of recombinant RTK ligand to confer resistance (A2058, PLX4720 - 2 uM, ligand 400 ng/ml): 0.98
ability of recombinant RTK ligand to confer resistance (A2058, PLX4720 - 2 uM, ligand 1600 ng/ml): 0.97
ability of recombinant RTK ligand to confer resistance (C32, PD184352 - 1 uM, ligand 6.25 ng/ml): 1.02
ability of recombinant RTK ligand to confer resistance (C32, PD184352 - 1 uM, ligand 25 ng/ml): 1.01
ability of recombinant RTK ligand to confer resistance (C32, PD184352 - 1 uM, ligand 100 ng/ml): 1.01
ability of recombinant RTK ligand to confer resistance (C32, PD184352 - 1 uM, ligand 400 ng/ml): 1.15
ability of recombinant RTK ligand to confer resistance (C32, PD184352 - 1 uM, ligand 1600 ng/ml): 0.91
ability of recombinant RTK ligand to confer resistance (C32, PLX4720 - 2 uM, ligand 6.25 ng/ml): 1.05
ability of recombinant RTK ligand to confer resistance (C32, PLX4720 - 2 uM, ligand 25 ng/ml): 0.89
ability of recombinant RTK ligand to confer resistance (C32, PLX4720 - 2 uM, ligand 100 ng/ml): 1.00
ability of recombinant RTK ligand to confer resistance (C32, PLX4720 - 2 uM, ligand 400 ng/ml): 1.05
ability of recombinant RTK ligand to confer resistance (C32, PLX4720 - 2 uM, ligand 1600 ng/ml): 0.95
ability of recombinant RTK ligand to confer resistance (Colo 829, PD184352 - 1 uM, ligand 6.25 ng/ml): 0.98
ability of recombinant RTK ligand to confer resistance (Colo 829, PD184352 - 1 uM, ligand 25 ng/ml): 1.01
ability of recombinant RTK ligand to confer resistance (Colo 829, PD184352 - 1 uM, ligand 100 ng/ml): 0.98
ability of recombinant RTK ligand to confer resistance (Colo 829, PD184352 - 1 uM, ligand 400 ng/ml): 0.99
ability of recombinant RTK ligand to confer resistance (Colo 829, PD184352 - 1 uM, ligand 1600 ng/ml): 1.02
ability of recombinant RTK ligand to confer resistance (Colo 829, PLX4720 - 2 uM, ligand 6.25 ng/ml): 0.97
ability of recombinant RTK ligand to confer resistance (Colo 829, PLX4720 - 2 uM, ligand 25 ng/ml): 1.02
ability of recombinant RTK ligand to confer resistance (Colo 829, PLX4720 - 2 uM, ligand 100 ng/ml): 0.94
ability of recombinant RTK ligand to confer resistance (Colo 829, PLX4720 - 2 uM, ligand 400 ng/ml): 0.99
ability of recombinant RTK ligand to confer resistance (Colo 829, PLX4720 - 2 uM, ligand 1600 ng/ml): 1.03
ability of recombinant RTK ligand to confer resistance (G-361, PD184352 - 1 uM, ligand 6.25 ng/ml): 1.03
ability of recombinant RTK ligand to confer resistance (G-361, PD184352 - 1 uM, ligand 25 ng/ml): 1.00
ability of recombinant RTK ligand to confer resistance (G-361, PD184352 - 1 uM, ligand 100 ng/ml): 0.91
ability of recombinant RTK ligand to confer resistance (G-361, PD184352 - 1 uM, ligand 400 ng/ml): 0.94
ability of recombinant RTK ligand to confer resistance (G-361, PD184352 - 1 uM, ligand 1600 ng/ml): 0.88
ability of recombinant RTK ligand to confer resistance (G-361, PLX4720 - 2 uM, ligand 6.25 ng/ml): 0.97
ability of recombinant RTK ligand to confer resistance (G-361, PLX4720 - 2 uM, ligand 25 ng/ml): 0.95
ability of recombinant RTK ligand to confer resistance (G-361, PLX4720 - 2 uM, ligand 100 ng/ml): 0.98
ability of recombinant RTK ligand to confer resistance (G-361, PLX4720 - 2 uM, ligand 400 ng/ml): 0.97
ability of recombinant RTK ligand to confer resistance (G-361, PLX4720 - 2 uM, ligand 1600 ng/ml): 0.85
ability of recombinant RTK ligand to confer resistance (SK-MEL-5, PD184352 - 1 uM, ligand 6.25 ng/ml): 0.99
ability of recombinant RTK ligand to confer resistance (SK-MEL-5, PD184352 - 1 uM, ligand 25 ng/ml): 1.01
ability of recombinant RTK ligand to confer resistance (SK-MEL-5, PD184352 - 1 uM, ligand 100 ng/ml): 0.97
ability of recombinant RTK ligand to confer resistance (SK-MEL-5, PD184352 - 1 uM, ligand 400 ng/ml): 0.89
ability of recombinant RTK ligand to confer resistance (SK-MEL-5, PD184352 - 1 uM, ligand 1600 ng/ml): 0.94
ability of recombinant RTK ligand to confer resistance (SK-MEL-5, PLX4720 - 2 uM, ligand 6.25 ng/ml): 0.98
ability of recombinant RTK ligand to confer resistance (SK-MEL-5, PLX4720 - 2 uM, ligand 25 ng/ml): 1.00
ability of recombinant RTK ligand to confer resistance (SK-MEL-5, PLX4720 - 2 uM, ligand 100 ng/ml): 1.03
ability of recombinant RTK ligand to confer resistance (SK-MEL-5, PLX4720 - 2 uM, ligand 400 ng/ml): 1.05
ability of recombinant RTK ligand to confer resistance (SK-MEL-5, PLX4720 - 2 uM, ligand 1600 ng/ml): 0.97
ability of recombinant RTK ligand to confer resistance (SK-MEL-28, PD184352 - 1 uM, ligand 6.25 ng/ml): 1.03
ability of recombinant RTK ligand to confer resistance (SK-MEL-28, PD184352 - 1 uM, ligand 25 ng/ml): 0.87
ability of recombinant RTK ligand to confer resistance (SK-MEL-28, PD184352 - 1 uM, ligand 100 ng/ml): 1.00
ability of recombinant RTK ligand to confer resistance (SK-MEL-28, PD184352 - 1 uM, ligand 400 ng/ml): 1.01
ability of recombinant RTK ligand to confer resistance (SK-MEL-28, PD184352 - 1 uM, ligand 1600 ng/ml): 1.14
ability of recombinant RTK ligand to confer resistance (SK-MEL-28, PLX4720 - 2 uM, ligand 6.25 ng/ml): 1.13
ability of recombinant RTK ligand to confer resistance (SK-MEL-28, PLX4720 - 2 uM, ligand 25 ng/ml): 0.96
ability of recombinant RTK ligand to confer resistance (SK-MEL-28, PLX4720 - 2 uM, ligand 100 ng/ml): 1.04
ability of recombinant RTK ligand to confer resistance (SK-MEL-28, PLX4720 - 2 uM, ligand 400 ng/ml): 1.08
ability of recombinant RTK ligand to confer resistance (SK-MEL-28, PLX4720 - 2 uM, ligand 1600 ng/ml): 1.22
